Target: truncated recombinant mOGT (C-654) (human)

YSDSPSTST [Peptide (…)] was tested, and the km for the peptide in the coupled enzyme assay of OGT transglycosylation (double-reciprocal plot; peptide 0.05 to 0.5 mM, UDP-GlcNAc held at 0.5 mM) was 0.16 mM.

From paper PMC3056017
